# Test results reported in patent US20060024313A1 (published 2006).
# Positions count from the first letter of the chain named. In names and notes the source's numbering stands.
# B1: DPP-IV V724A mutant (enzyme, human, UniProt P27487 39-766, looked up)
# chain: SRKTYTLTDYLKNTYRLKLYSLRWISDHEYLYKQENNILVFNAEYGNSSVFLENSTFDEFGHSINDYSISPDGQFILLEYNYVKQWRHSYTASYDIYDLNKRQLITEERIPNNTQWVTWSPVGHKLAYVWNNDIYVKIEPNLPSYRITWTGKEDIIYNGITDWVYEEEVFSAYSALWWSPNGTFLAYAQFNDTEVPLIEYSFYSDESLQYPKTVRVPYPKAGAVNPTVKFFVVNTDSLSSVTNATSIQITAPASMLIGDHYLCDVTWATQERISLQWLRRIQNYSVMDICDYDESSGRWNCLVARQHIEMSTTGWVGRFRPSEPHFTLDGNSFYKIISNEEGYRHICYFQIDKKDCTFITKGTWEVIGIEALTSDYLYYISNEYKGMPGGRNLYKIQLSDYTKVTCLSCELNPERCQYYSVSFSKEAKYYQLRCSGPGLPLYTLHSSVNDKGLRVLEDNSALDKMLQNVQMPSKKLDFIILNETKFWYQMILPPHFDKSKKYPLLLDVYAGPCSQKADTVFRLNWATYLASTENIIVASFDGRGSGYQGDKIMHAINRRLGTFEVEDQIEAARQFSKMGFVDNKRIAIWGWSYGGYVTSMVLGSGSGVFKCGIAVAPVSRWEYYDSVYTERYMGLPTPEDNLDHYRNSTVMSRAENFKQVEYLLIHGTADDNVHFQQSAQISKALADVGVDFQAMWYTDEDHGIASSTAHQHIYTHMSHFIKQCFSLP
# notes: Mixture of monomers and dimers
# B2: DPP-IV W734A mutant (enzyme, human, UniProt P27487 39-766, looked up)
# chain: B1 chain with A686V, W696A
# notes: Monomer by AUC
# B3: DPP-IV F730A mutant (enzyme, human, UniProt P27487 39-766, looked up)
# chain: B1 chain with A686V, F692A
# notes: as for B1
# B4: DPP-IV Y248A mutant (enzyme, human, UniProt P27487 39-766, looked up)
# chain: B1 chain with Y210A, A686V
# notes: Monomer by AUC
# B5: DPP-IV F713A mutant (enzyme, human, UniProt P27487 39-766, looked up)
# chain: B1 chain with F675A, A686V
# B6: DPP-IV F713R mutant (enzyme, human, UniProt P27487 39-766, looked up)
# chain: B1 chain with F675R, A686V
# B7: DPP-IV Y735A mutant (enzyme, human, UniProt P27487 39-766, looked up)
# chain: B1 chain with A686V, Y697A
# notes: Monomer by AUC
# B8: Bovine adenosine deaminase (ADA) (enzyme, UniProt P56658 2-363, looked up)
# chain: AQTPAFNKPKVELHVHLDGAIKPETILYYGRKRGIALPADTPEELQNIIGMDKPLSLPEFLAKFDYYMPAIAGCREAVKRIAYEFVEMKAKDGVVYVEVRYSPHLLANSKVEPIPWNQAEGDLTPDEVVSLVNQGLQEGERDFGVKVRSILCCMRHQPSWSSEVVELCKKYREQTVVAIDLAGDETIEGSSLFPGHVKAYAEAVKSGVHRTVHAGEVGSANVVKEAVDTLKTERLGHGYHTLEDATLYNRLRQENMHFEVCPWSSYLTGAWKPDTEHPVVRFKNDQVNYSLNTDDPLIFKSTLDTDYQMTKNEMGFTEEEFKRLNINAAKSSFLPEDEKKELLDLLYKAYGMPSPASAEQCL
# modifications: coupled to CNBr-activated Sepharose 4B (affinity column)
# B9: DPP-IV H750E mutant (enzyme, human, UniProt P27487 39-766, looked up)
# chain: B1 chain with A686V, H712E
# notes: range 39-766; Monomeric by AUC
# Legend:
# [1] = target: the molecule itself; experiment: dimer form listed in the table of kinetic constants (self-association)
# AUC (self-association) = target: the molecule itself; experiment: AUC (self-association)
# DPP-IV H750E mutant = target: B9; experiment: ADA affinity column purification
# DPP-IV H750A mutant = target: T1, DPP-IV H750A mutant (human, UniProt P27487 39-766); experiment: ADA affinity column purification
# T1 construct: range 39-766; also called H750A dimer; H750A monomer
# [2] = target: the molecule itself; experiment: velocity AUC in PBS (self-association)
Binder,binding result (AUC (self-association)),also measured
B1,,binding result [1]: binds
B2,no binding,
B3,,binding result [1]: binds
B4,no binding,
B5,no binding,
B6,no binding,
B7,no binding,
B8,,binding result (DPP-IV H750E mutant): binds; binding result (DPP-IV H750A mutant): binds
B9,,binding result [2]: no binding (tested: 0.1 to 0.2 mg/ml (1.2 uM to 2.3 uM))
